Experimental data from patent US20050267061.
pKd: −log10 of the molar value.

“ATGGACGGG (double strand) [BVO 13A / MX1E target]” showed a pKd (MX1E (synthetic)) of 8.47 and a pKd (BVO 13A (synthetic)) of over 10.70.

“GAGGCTTGG (double strand) [VOP 29A-3 target]” was tested, and the pKd (VOP 29A-3 (synthetic)) was over 10.70.

Work on “GCCGGGGAG (double strand) [USX 3A target]” yielded a pKd (USX 3A (synthetic)) of 10.22.

Sequence “GCTGGAGCA (double strand) [VOP 35A-10 target]” has a pKd (VOP 35A-10 (synthetic)) of over 10.70.

With “GCTGGGGGC (double strand) [VOP 30A-4 target]” the pKd (VOP 30A-4 (synthetic)) was over 10.70.

With “GGDTGGGGG (double strand) [HP38 4A target]” the pKd (HP38 4A (synthetic)) was 9.12.

“GGGGAGGAT (double strand) [VEGF 1B target]” gave a pKd (VEGF 1B (synthetic)) of 8.70.

Work on “GGGGGCGCT (double strand) [VOP 28A-2 target]” yielded a pKd (VOP 28A-2 (synthetic)) of over 10.70.

“GGGGGTGAC (double strand) [VOP 32 target]” gave a pKd (VOP 32A-6 (synthetic)) of over 10.70 and a pKd (VOP 32B-7 (synthetic)) of over 10.70.

With “TGGGCAGAC (double strand) [HUM 19A target]” the pKd (HUM 19A (synthetic)) was 10.70.

Work on “TGGGGGTGG (double strand) [MTS 5A target]” yielded a pKd (MTS 5A (synthetic)) of 10.15.
